Source: patent US9976167B2, “Group of glycosyltransferases and use thereof” (Shanghai Institutes For Biological Sciences, Chinese …, priority 2012, dated 2018)

Experiments:
Type in all cases: biochemical
[1] = Glycosyltransfering reaction with crude enzyme, substrate Rg2; conditions: crude enzyme: lysate supernatant of recombinant yeast; UDP-glucose, 35° C., 12 hrs; TLC
Description: (§1) The lysate supernatant of the recombinant yeasts expressing the empty vector was used as control.
(§2) The reaction was conducted under 35° C. for 12 hrs, then stopped by adding 100 μL of butanol. The product were extracted, dried in vacuum, and dissolved in methanol.
(§3) The reaction products were first detected by thin layer chromatography (TLC).

[2] = Glycosyltransfering activities on ginsengenins and saponins: glycosylation site and specificity (summary); conditions: for glycosylation site: C6 / glycosylation site: C20: Table 2, tetracyclic triterpenoid substrates; for extension of carbohydrate chain: crude enzyme: lysate supernatant of recombinant yeast, UDP-glucose, 35° C., 12 hrs, TLC
Description: More than 100 predicted cDNA sequences of glycosyltransferases were extracted from the published expression profile data of the Panax plant. 60 cDNAs with full length were cloned, expressed, and subjected to the analysis of glycosyltransfering reaction.
as §1, §2
(§4) The glycosyltransfering reactions of ginsenosides and ginsengenins were catalyzed by using the lysis supernatant of the recombinant yeasts expressing 3GT1, 3GT2, 3GT3 and 3GT4 as crude enzymes. The lysis supernatant of recombinant E. coli expressing empty vectors was used as control. The 100 μL reaction system is shown as Table 3. The reaction was conducted under 35° C. for 12 hrs, then stopped by adding 100 μL of butanol. The product were extracted, dried in vacuum, and dissolved in methanol.
(§5) The lysate supernatant of the recombinant yeast expressing empty vectors was used as control. The reaction was conducted under 35° C. for 12 hrs, and then stopped by adding 100 μL of butanol. The product were extracted, dried in vacuum, and dissolved in methanol.
(§6) The glycosyltransfering reactions of ginsenosides Rh2 and F2 were catalyzed by using the lysate supernatant of the recombinant yeasts expressing 3GT1, 3GT2, 3GT3 and 3GT4 as crude enzymes. The 100 μL reaction system is shown as Table 3. The reaction was conducted under 35° C. for 12 hrs, and then stopped by adding 100 μL of butanol. The product were extracted, dried in vacuum, and dissolved in methanol.

[3] = Glycosyltransfering reaction with crude enzyme, substrate Rg3; conditions: crude enzyme: lysate supernatant of recombinant yeast; UDP-glucose, 35° C., 12 hrs; TLC
Description: as §1, §2
(§7) The reaction products were first detected by thin layer chromatography (TLC). […]

[4] = Glycosyltransfering reaction with crude enzyme, substrate Rh2; conditions: crude enzyme: lysate supernatant of recombinant yeast; UDP-glucose, 35° C., 12 hrs; TLC
Description: as §1, §2, §7, §5, §6

[5] = Glycosyltransfering reaction with crude enzyme, substrate DM; conditions: crude enzyme: lysate supernatant of recombinant yeast; UDP-glucose, 35° C., 12 hrs; TLC
Description: as §1, §2, §3, §4

[6] = Glycosyltransfering reaction with crude enzyme, substrate PPT; conditions: for glycosylation of C6-OH of PPT (product Rg1 or Rh1) / glycosylation of C20-OH of PPT (product F1): crude enzyme: lysate supernatant of recombinant yeast, UDP-glucose, 35° C., 12 hrs, TLC
Description: as §1, §2, §3
(§8) The converted products of gGT25 were further identified by HPLC (FIG. 10 and FIG. 11). The retention time of peak 2 was identical to that of the CK standard sample; the retention time of peak 3 was identical to that of PPD. […] Peak 1, also present in the profile of the negative control, indicated its irrelevance to the conversion of PPD. 3 peaks were shown in FIG. 11, the retention time of peak 1 was identical to that of F1 standard sample and peak 3 was identical to that of PPT. […] Peak 2, also present in the profile of the negative control, indicated its irrelevance to the conversion of PPT.
(§9) According to the method as in Example 4, the cell lysate of recombinant yeasts expressing gGT13 and gGT30 were used to catalyze PPD and PPT.
as §4

[7] = Glycosyltransfering reaction with crude enzyme, substrate Rf; conditions: crude enzyme: lysate supernatant of recombinant yeast; UDP-glucose, 35° C., 12 hrs; TLC
Description: as §1, §2, §3

[8] = Glycosyltransfering reaction with crude enzyme, substrate Rh1; conditions: crude enzyme: lysate supernatant of recombinant yeast; UDP-glucose, 35° C., 12 hrs; TLC
Description: as §1, §2, §7

[9] = Glycosyltransfering reaction with crude enzyme, substrate PPD; conditions: for glycosylation of C20-OH of PPD (product CK): crude enzyme: lysate supernatant of recombinant yeast, UDP-glucose
Description: as §1, §2, §3, §8, §9
The cell lysis supernatant of the recombinant E. coli was used as crude enzyme to conduct the glycosyltransfering reaction, and the reaction condition was identical to that of Example 4.
The reaction was conducted under 35° C. for 12 hrs. 100 μL of butanol was added to stop the reaction and the products were extracted. Upon vacuum drying, the product was dissolved by methanol. TLC was first used to detect the reaction product.
as §4
The reaction was conducted under 35° C. for 12 hrs, and then stopped by adding 100 μL of butanol. The product were extracted, dried in vacuum, and dissolved in methanol. The reaction products were first detected by thin layer chromatography (TLC) (FIG. 35).

[10] = crude enzyme from recombinant yeast, HPLC

Row | Molecule | glycosylation of C20-OH of Rg2 [1] | glycosylation site: C6 [2] | glycosylation site: C20 [2] | extension of carbohydrate chain [2] | glycosylation of C20-OH of Rg3 (product Rd) [3] | glycosylation of C20-OH of Rh2 (product F2) [4] | glycosylation of C20-OH of DM (product 20-O-β-(D-glucopyranosyl)-dammarendiol II) [5] | transformation of PPT into F1 [6, 10] | glycosylation of C6-OH of PPT (product Rg1 or Rh1) [6] | glycosylation of C20-OH of PPT (product F1) [6] | glycosylation of C20-OH of Rf [7] | glycosylation of C20-OH of Rh1 [8] | transformation of PPD into CK [9, 10] | transformation of PPD into CK ([9]; crude enzyme: cell lysis supernatant of recombinant E. coli, 35° C., 12 hrs, TLC) | glycosylation of C20-OH of PPD (product CK) ([9]; 35° C., 12 hrs, TLC)
1 | gGT25: glycosyltransferase protein with 475 amino acids, amino acid sequence SEQ ID NO.: 2, cloned from P. ginseng cDNA (protein, Panax ginseng; gGT25) MKSELIFLPAPAIGHLVGMVEMAKLFISRHENLSVTVLIAKFYMDTGVDNYNKSLLTNPTPRLTIVNLPETDPQNYMLKPRHAIFPSVIETQKTHVRDIISGMTQSESTRVVGLLADLLFINIMDIANEFNVPTYVYSPAGAGHLGLAFHLQTLNDKKQDVTEFRNSDTELLVPSFANPVPAEVLPSMYVDKEGGYDYLFSLFRRCRESKAIIINTFEELEPYAINSLRMDSMIPPIYPVGPILNLNGDGQNSDEAAVILGWLDDQPPSSVVFLCFGSYGSFQENQVKEIAMGLERSGHRFLWSLRPSIPKGETKLQLKYSNLKEILPVGFLDRTSCVGKVIGWAPQVAVLGHESVGGFLSHCGWNSTLESVWCGVPVATWPMYGEQQLNAFEMVKELGIAVEIEVDYKKDYFNMKNDFIVRAEEIETKIKKLMMDENNSEIRKKVKEMKEKSRAAMSENGSSYNSLAKLFEEIM | could not be catalyzed | ✓ | ✓ | could not catalyze | further glycosylated at C20-OH | further glycosylated at C20-OH | could also glycosylate C20-OH | substantially transformed | C6-OH could be further glycosylated | glycosylated the C20-OH | could not be catalyzed | could not be catalyzed | substantially transformed | could transform PPD into CK | glycosylated the C20-OH
2 | gGT25-1: glycosyltransferase protein with 475 amino acids, SEQ ID NO.: 16 (protein, Panax ginseng; gGT25-1) MKSELIFLPAPAIGHLVGMVEMAKLFISRHENLSVTVLIAKFYMDTGVDNYNKSLLTNPTPRLTIVNLPETDPQNYMLKPRHAIFPSVIETQKTHVRDIISGMTQSESTRVVGLLADLLFINIMDIANEFNVPTYVYSPAGAGHLGLAFHLQTLNDKKQDVTEFRNSDTELLVPSFANPVPAEVLPSMYVDKEGGYDYLFSLFRRCRESKAIIINTFEELEPYAINSLRMDSMIPPIYPVGPILNLNGDGQNSDEAAVILGWLDDQPPSSVVFLCFGSYGTFQENQVKEIAMGLERSGHRFLWSLRPSIPKGETKLQLKYSNLEEILPVGFLDRTSCVGKVIGWAPQVAVLGHEAVGGFLSHCGWNSTLESVWCGVPVATWPMYGEQQLNAFEMVKELGIAVEIEVDYKNEYFNMNNDFIVRAEEIETKIKKLMMDEKNSEIRKKVKEMKEKSRLAMSENGSSYNSLAKLFEEIM | could not be catalyzed | ✓ | ✓ | could not catalyze | further glycosylated at C20-OH | further glycosylated at C20-OH | could also glycosylate C20-OH | – | C6-OH could be further glycosylated | glycosylated the C20-OH | could not be catalyzed | could not be catalyzed | – | – | glycosylated the C20-OH
